The results in this text go back to patent US20040043438A1.

Residue numbers refer to the chain shown, from its start.

The target of experiment [1] is specific IgE bound to the surface of human basophils from birch pollen allergic patients. Briefly: cell-based or functional assay.
Experiment [2] deals with serum IgE from a pool of birch allergic patients. In words: fluid-phase IgE-inhibition assay; competes with biotinylated Bet v 1.2801 for pooled serum IgE.
Experiment [3] shares this target. In words: fluid-phase IgE-inhibition assay; competes with biotinylated Bet v 1 no. 2801 for pooled serum IgE.

B1: Mutant Bet v 1 (2628) (protein)
chain: GVFNVETETTSVIPAARLFKAFILDGDNLFPKVAPQAISSVENISGNGGPGTIKKISFPEGFPFNYVKDRVDEVDHTNFKYNYSVIEGGPIGDTLESISNEIKIVATPDGGSILKISNKYHTKGDHEVKAEQVEASKEMGETLLRAVESYLLAHSDAYN
B1 displayed a histamine release in human basophil: reduction of potency against Bet v 1.2801 in experiment [1] of 3 to 10 fold. Besides, the factor by which the affinity is lowered against Bet v 1.2801 in experiment [2] lay within 3 to 4 fold.

B2: Bet v 1 (Asn28Thr, Lys32Gln, Glu45Ser, Pro108Gly) mutant (protein)
chain: B1 chain with V5Y, N28T, K32Q, N65K, S97K, P108G, E134K
B2: in experiment [3], the amount to reach 80% inhibition was 400 ng, the factor of decrease against recombinant Bet v 1 (at 80% inhibition) worked out at 20 fold and the factor of decrease in affinity against recombinant Bet v 1 (at 50% inhibition) is 5 fold.
